Where a chain is given by its changes, count along the chain named. Read-outs that look alike come from different tables or passages of the source. Blank lines part the entries; values can stand above or below the binder they belong to.
Legend:
[1] = target: T1, recombinant human osteopontin (R&D Systems #1433-OP/CF, carrier free) (human, UniProt P10451 17-314, biotinylated in the capture ELISA, on the SET plates and on the Biacore streptavidin chip); assay: solution equilibrium titration (SET), ECL, Fab
T1 construct: Bought protein; also called hOPN; human OPN
T1 sequence (P10451 other isoform, or with tags, fused parts or gaps limits assumed): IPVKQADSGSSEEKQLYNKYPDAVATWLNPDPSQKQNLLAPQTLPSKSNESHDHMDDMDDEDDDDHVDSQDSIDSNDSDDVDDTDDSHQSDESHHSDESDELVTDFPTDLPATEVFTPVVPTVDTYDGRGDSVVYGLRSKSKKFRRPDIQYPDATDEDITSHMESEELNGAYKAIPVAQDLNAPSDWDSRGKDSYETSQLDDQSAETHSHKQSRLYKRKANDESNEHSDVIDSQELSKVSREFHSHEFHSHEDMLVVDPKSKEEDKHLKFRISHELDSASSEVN
Protocol: Affinity determination in solution was basically performed as described in the literature (Friguet et al., J. Immunol. Methods 77:305 (1985)). In order to improve the sensitivity and accuracy of the SET method, it was transferred from classical ELISA to ECL based technology (Haenel et al., Anal. Biochem. 339:182-184 (2005)). 1 mg/mL goat-anti-human (Fab)₂ fragment specific antibodies (Dianova) were labeled with MSD Sulfo-TAG™ NHS-Ester (Meso Scale Discovery, Gaithersburg, Md., USA) according to the manufacturer's instructions. The experiments were carried out in polypropylene microtiter plates and PBS, pH 7.4, with 0.5% BSA and 0.02% Tween 20 as assay buffer. Unlabeled osteopontin was diluted in a 2n series, starting with a concentration at least 10 times higher than the expected KD. Wells without antigen were used to determine Bₘₐₓ values; wells with assay buffer were used to determine background. After addition of e.g. 25 pM Fab (final concentration in 60 μL final volume), the mixture was incubated over night at room temperature. The applied Fab concentration was similar to or below the expected KD.
Streptavidin coated MSD plates were blocked over night with 3% BSA in PBS (50 μL/well), subsequently the blocking solution was discarded and the plates were coated with […] biotinylated osteopontin in assay buffer (30 μL/well) for 1 hour. After washing the coated MSD plates with assay buffer, the equilibrated samples were transferred to those plates (30 μL/well) and incubated for 20 minutes. After washing, 30 μL/well of the MSD Sulfo-tag labeled detection antibody (goat anti-human (Fab)₂) in a final dilution of 1:1000 was added to the MSD plate and incubated for 30 minutes on an Eppendorf shaker (700 rpm).

[2] = target: T1, recombinant human osteopontin (R&D …); assay: Biacore (SPR), Fab over biotinylated human OPN on streptavidin chip
Protocol: (§1) Binding to immobilized antigen was analyzed using the BIAcore3000 instrument (Biacore, Sweden).
(§2) For antigen immobilization, two alternative strategies were used: in the case of human OPN, biotinylated human OPN was bound to a Streptavidin coated sensor chip (Biacore, Sweden) to a binding level of approximately 300 RU. The reference flow cell was coated with a similar amount of biotinylated HSA. In the case of murine OPN, the antigen was immobilized covalently using standard EDC-NHS amine coupling chemistry. CM5 chips (Biacore, Sweden) were coated with murine OPN in 10 mM acetate buffer, pH 3.5 to a level of 400 RU. For the reference flow cell, a respective amount of HSA was used. Regeneration was accomplished with two injections of 10 mM Gly/HCl, pH 1.5 (5 μL) and 50 mM phosphoric acid (5 μL), respectively. Kinetic measurements were done in Dulbeccos PBS, pH 7.4 (Gibco) with 0.05% Tween 20 at a flow rate of 20 μL/min using a 2n serial dilution row of Fab samples. The Fab concentrations ranged from 15.6 to 500 nM. The injection time for each concentration was 1 minute, and the dissociation time was set to a minimum of 3 minutes. A blank injection of running buffer was used for double referencing. All sensorgrams were fitted globally using BIA evaluation software 3.2 (Biacore, Sweden), to determine association and dissociation rate constants (kₒₙ and koff), which were used to calculate the affinity (KD=koff/kₒₙ).

[3] = target: T2, recombinant mouse osteopontin (R&D Systems #441-OP/CF, carrier free) (mouse, UniProt P10923 17-294, biotinylated in the capture ELISA); assay: Biacore (SPR), Fab over amine-coupled murine OPN on CM5 chip
T2 construct: Bought protein; also called mOPN; mouse OPN
T2 sequence (P10923 17-294 limits assumed): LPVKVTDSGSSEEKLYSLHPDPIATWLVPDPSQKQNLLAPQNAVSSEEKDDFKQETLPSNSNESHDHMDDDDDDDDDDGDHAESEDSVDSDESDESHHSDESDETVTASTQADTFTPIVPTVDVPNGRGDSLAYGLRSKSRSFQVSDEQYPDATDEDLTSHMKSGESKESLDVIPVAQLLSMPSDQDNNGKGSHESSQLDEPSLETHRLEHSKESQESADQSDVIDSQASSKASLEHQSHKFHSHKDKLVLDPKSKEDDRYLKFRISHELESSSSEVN
Protocol: as §1, §2

[4] = target: T1, recombinant human osteopontin (R&D …); assay: cell-based or functional assay
[5] = target: T1, recombinant human osteopontin (R&D …); assay: Biacore 3000 (SPR), IgG flowed over amine-coupled human Osteopontin; avidity, 1:1 fit
Protocol: (§3) Binding avidity of monoclonal antibodies to Osteopontin was determined using Biacore analysis (General Electric Healthcare, Biacore 3000). To obtain nominal avidity measurements, human Osteopontin (R&D Systems, 1433-OP-050/CF) and mouse Osteopontin (R&D Systems, 441-OP-050/CF) were immobilized on a biosensor chip using standard amine coupling and various concentrations of monoclonal antibodies (MOR6990, MOR6991 and MOR6993) were flowed across the surface at 25.0° C. in 10 mM HEPES pH 7.4, 150 mM NaCl, 0.005% P20. The binding data were fit globally to a simple one-to-one binding model.

[6] = target: T2, recombinant mouse osteopontin (R&D …); assay: Biacore 3000 (SPR), IgG flowed over amine-coupled mouse Osteopontin; avidity, 1:1 fit
Protocol: as §3

[7] = target: T1, recombinant human osteopontin (R&D …); assay: cell-based or functional assay; remark: listed apart in the source
[8] = target: T1, recombinant human osteopontin (R&D …); assay: Biacore (SPR), Fab over immobilized human OPN
[9] = target: T1, recombinant human osteopontin (R&D …); assay: protein ELISA, Fab on human OPN protein
[10] = target: T2, recombinant mouse osteopontin (R&D …); assay: Biacore (SPR), Fab over immobilized mouse OPN
Protocol: as §2

[11] = target: T3, SPP1 peptide comprising functional domains of human OPN (27 aa) (human); assay: peptide ELISA, Fab on human SPP1 peptide
T3 construct: Target of the 'Peptide ELISA, hOPN' columns; also called hOPN peptide; SSP1 peptide

[12] = target: T4, SPP1 peptide comprising functional domains of mouse OPN (27 aa) (mouse); assay: peptide ELISA, Fab on mouse SPP1 peptide
T4 construct: Target of the 'Peptide ELISA, mOPN' columns; also called mOPN peptide; SSP1 peptide

[13] = target: T2, recombinant mouse osteopontin (R&D …); assay: protein ELISA, Fab on mouse OPN protein

B1: HuCAL GOLD Fab 6993 (MOR-6993 Fab) (Fab, V domains shown)
VH: QVQLVESGGGLVQPGGSLRLSCAASGFTFTTSSMHWVRQAPGKGLEWVSRISSHGSNTYYADSVKGRFTISRDNSKNTLYLQMNSLRAEDTAVYYCARDMYRGVYGFALWGQGTLVTVSS
VL: DIELTQPPSVSVAPGQTARISCSGDAIRNYYVHWYQQKPGQAPVLVIYEDSDRPSGIPERFSGSNSGNTATLTISGTQAEDEADYYCQSYDKSNVVFGGGTKLTVL
notes: Fab format made in E. coli
Kd [1]: 0.2 nM | Kd [2]: 70 nM | Kd [3]: 3980 nM | Adhesion Assay Mn2+-dependent hOPN, IC50 [4]: 29.8 nM

B3: HuCAL GOLD Fab 6991 (MOR-6991 Fab) (Fab, V domains shown)
VH: QVQLVESGGGLVQPGGSLRLSCAASGFTFNNYAVSWVRQAPGKGLEWVSGISYGGSNTYYADSVKGRFTISRDNSKNTLYLQMNSLRAEDTAVYYCARTLGGDFDHWGQGTLVTVSS
VL: DIVLTQPPSVSGAPGQRVTISCSGSSSNIGSNYVNWYQQLPGTAPKLLIYGNSKRPSGVPDRFSGSKSGTSASLAITGLQSEDEADYYCQSFTQMLLVFGGGTKLTVL
notes: Fab format made in E. coli
Kd [1]: 3 nM | Kd [2]: 300 nM | Kd [3]: 1390 nM | Adhesion Assay Mn2+-dependent hOPN, IC50 [4]: 264 nM

B5: MOR-6990 (full length human IgG2) (antibody, V domains shown)
VH: QVQLVESGGGLVQPGGSLRLSCAASGFTFSNYVMHWVRQAPGKGLEWVSSIFGSGSDTYYADSVKGRFTISRDNSKNTLYLQMNSLRAEDTAVYYCARSASSGFGFAGYGIDSWGQGTLVTVSS
VL: DIELTQPPSVSVAPGQTARISCSGDSLRYYYAHWYQQKPGQAPVLVIYDDNKRPSGIPERFSGSNSGNTATLTISGTQAEDEADYYCQSWDLFHSSVFGGGTKLTVLG
notes: Human IgG2, lambda light chain; made in HKB11 cells
Kd [5]: 20.9 nM | koff [5]: 0.00203 s⁻¹ | kon [5]: 96900 M⁻¹ s⁻¹ | Kd [6]: 4.7 nM | koff [6]: 0.000864 s⁻¹ | kon [6]: 183000 M⁻¹ s⁻¹ | Adhesion Assay Mn2+-dependent hOPN, IC50 [7]: 0.4 nM

B6: HuCAL GOLD Fab 6990 (MOR-6990 Fab) (Fab, V domains shown)
VH: B5 VH
VL: DIELTQPPSVSVAPGQTARISCSGDSLRYYYAHWYQQKPGQAPVLVIYDDNKRPSGIPERFSGSNSGNTATLTISGTQAEDEADYYCQSWDLFHSSVFGGGTKLTVL
notes: Fab format made in E. coli
Kd [1]: 35 nM | Kd [2]: 140 nM | Kd [3]: 2270 nM | Adhesion Assay Mn2+-dependent hOPN, IC50 [4]: 157 nM

Results, then the binder that gave them:

Kd [5]: 0.752 nM | koff [5]: 0.00462 s⁻¹ | kon [5]: 6.14e+06 M⁻¹ s⁻¹ | Kd [6]: 0.747 nM | koff [6]: 0.00496 s⁻¹ | kon [6]: 6.64e+06 M⁻¹ s⁻¹ | Adhesion Assay Mn2+-dependent hOPN, IC50 [7]: 0.4 nM
B2: MOR-6993 (full length human IgG2) (antibody, V domains shown)
VH: B1 VH
VL: DIELTQPPSVSVAPGQTARISCSGDAIRNYYVHWYQQKPGQAPVLVIYEDSDRPSGIPERFSGSNSGNTATLTISGTQAEDEADYYCQSYDKSNVVFGGGTKLTVLG
notes: as for B5

Kd [5]: 19 nM | koff [5]: 0.00933 s⁻¹ | kon [5]: 491000 M⁻¹ s⁻¹ | Adhesion Assay Mn2+-dependent hOPN, IC50 [7]: 0.6 nM
B4: MOR-6991 (full length human IgG2) (antibody, V domains shown)
VH: B3 VH
VL: DIVLTQPPSVSGAPGQRVTISCSGSSSNIGSNYVNWYQQLPGTAPKLLIYGNSKRPSGVPDRFSGSKSGTSASLAITGLQSEDEADYYCQSFTQMLLVFGGGTKLTVLG
notes: as for B5

Kd [8]: 80 nM | EC50 [9]: 0.6 nM | Kd [10]: 41 nM | EC50 [11]: 0.7 nM | EC50 [12]: 0.7 nM | EC50 [13]: 0.6 nM
B7: MOR-10475 Fab (Fab, V domains shown)
VH: B5 VH
VL: B6 VL with S89A, F93I, H94N, S96H
notes: Only variable domains are tied to the Fab
